Measurements as given in PMC5105194 (Nature Communications, 2016).

Target: full-length human VPS29 (human, UniProt Q9UBQ0 1-182)
Test: ITC; TBC proteins (100∼200 μM) injected into retromer proteins (8–16 μM); 20 °C; 20 mM Tris pH 8, 200 mM NaCl, 5 mM βME; one set of sites model
Details: both partners purified

B1: TBC1d5 Ins1 peptide (peptide)
peptide: GQQDLMINNPLSQDEGSLWNKFFQDKE
notes: TBC1d5 residues 132–158 (Insertion 1 region); The limits are told for the crystallised peptide; source: expressed as MBP fusion, purified (Amylose resin, TEV cleavage, Ni-NTA, Superdex 75); not shown: His6, C-terminal, kept
binding result: binds
